Source: article PMC2710387

Molecular target: SP1 (recombinant, purified, Promega) (UniProt P08047 2-785)
Test: EMSA

Chain of SP1 (recombinant, purified, Promega) (P08047 2-785): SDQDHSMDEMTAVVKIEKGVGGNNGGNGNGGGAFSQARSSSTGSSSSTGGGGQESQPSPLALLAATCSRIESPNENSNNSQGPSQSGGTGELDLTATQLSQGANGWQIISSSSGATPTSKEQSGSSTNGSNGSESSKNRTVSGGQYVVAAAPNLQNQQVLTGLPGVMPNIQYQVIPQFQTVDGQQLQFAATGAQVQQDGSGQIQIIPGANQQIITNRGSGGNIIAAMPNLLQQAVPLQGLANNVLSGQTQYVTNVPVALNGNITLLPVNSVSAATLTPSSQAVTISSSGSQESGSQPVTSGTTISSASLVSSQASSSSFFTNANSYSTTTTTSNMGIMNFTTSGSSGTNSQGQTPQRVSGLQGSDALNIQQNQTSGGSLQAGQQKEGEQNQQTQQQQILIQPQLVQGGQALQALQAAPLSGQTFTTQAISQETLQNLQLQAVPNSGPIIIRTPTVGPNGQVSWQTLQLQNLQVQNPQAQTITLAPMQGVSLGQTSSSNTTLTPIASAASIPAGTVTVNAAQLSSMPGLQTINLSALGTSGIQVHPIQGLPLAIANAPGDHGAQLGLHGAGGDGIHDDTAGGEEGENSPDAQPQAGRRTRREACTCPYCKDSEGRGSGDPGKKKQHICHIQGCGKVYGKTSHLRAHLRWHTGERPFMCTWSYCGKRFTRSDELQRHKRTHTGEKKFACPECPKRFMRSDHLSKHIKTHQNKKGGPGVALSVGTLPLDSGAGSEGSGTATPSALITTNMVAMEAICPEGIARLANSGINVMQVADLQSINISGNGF

Row | Binder | binding result
1 | Sp1 (-268) methylated (Sp1-2 M) (dsDNA, 5-methylcytosine (printed mC): strand 1 C5,C11,C16,C21,C24; strand 2 C3,C8,C13,C19) DNA 1: TTCTCGTCCCCGCCCCGTCCCGCC DNA 2: GGCGGGACGGGGCGGGGACGAGAA | no binding
2 | Sp1 (-268) unmethylated (Sp1-2) (dsDNA) DNA 1: TTCTCGTCCCCGCCCCGTCCCGCC DNA 2: GGCGGGACGGGGCGGGGACGAGAA | binds
3 | Sp1 (-346) unmethylated (Sp1-1) (dsDNA) DNA 1: TCCACCCTCCGCCCCGCGCCGTCC DNA 2: GGACGGCGCGGGGCGGAGGGTGGA | binds
4 | Sp1 (-346) methylated (Sp1-1 M) (dsDNA, 5-methylcytosine (printed mC): strand 1 C10,C15,C17,C20,C24; strand 2 C4,C7,C9,C14) DNA 1: TCCACCCTCCGCCCCGCGCCGTCC DNA 2: GGACGGCGCGGGGCGGAGGGTGGA | no binding
